Test results from article PMC3804602, “Nanobody Mediated Crystallization of an Archeal Mechanosensitive Channel” (PLoS ONE, 2013).
Changes are numbered by the printed parent chain.

T1: T2 mechanosensitive channel from Thermoplasma volcanium, tag free (Thermoplasma volcanium)
T1 construct: TVN0821, gene amplified from genomic DNA (DSM 4299 [GSS1*]); 297 amino acids per monomer; Cloned into pNIC28-Bsa4 (TEV site) and pET46 (Enterokinase site); In detergent (0.03 % DDM); also called T2 channel; tag free T2-channel; source: E. coli C43(DE3), purified (DDM solubilised, IMAC, tag cleavage, second IMAC, gel filtration); not shown: His-tag, N-terminal, cleaved
T1 chain: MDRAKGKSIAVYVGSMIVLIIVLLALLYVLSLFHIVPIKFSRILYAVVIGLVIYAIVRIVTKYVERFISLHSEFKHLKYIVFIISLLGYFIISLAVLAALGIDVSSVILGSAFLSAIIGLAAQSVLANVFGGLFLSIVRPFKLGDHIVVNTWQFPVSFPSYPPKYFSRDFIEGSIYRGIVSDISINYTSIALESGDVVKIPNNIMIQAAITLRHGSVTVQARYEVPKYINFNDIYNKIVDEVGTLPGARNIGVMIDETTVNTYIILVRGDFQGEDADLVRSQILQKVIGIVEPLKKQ

B1: nanobody 12 (VHH)
VHH: QVQLQESGGGLVQPGGSLRLSCVASGSIFSINAMGWYRQAPGKQRDLVAVITSRGSTNYADSVKGRFTISRDNAKNTTYLQMNSLKPEDTAVYYCNADLAAYYSGTYYDTLLYWGQGTQVTVSS
notes: pHEN6 vector; also called Nb 12; CA-number 3394; source: E. coli WK6 periplasm, purified (IMAC, gel filtration); not shown: His-tag, C-terminal, kept
B2: nanobody 7 (VHH)
VHH: QVQLQESGGGLVQPGGSLRLSCTASGTIFMIDAMGWYRQAPGKQRELVALINSGGSTNYADSVKGRFAISRNNARSTVYLQMNSLKPEDTAVYYCNADTWNGVRRDVYWGQGTQVTVSS
notes: pHEN6 vector; also called Nb 7; CA-number 3388; source: E. coli WK6 periplasm, purified (IMAC, gel filtration); not shown: His-tag, C-terminal, kept
B3: nanobody 23 (VHH)
VHH: QVQLQESGGGLVQPGGFLTLSCAASGSPFSFGAMGWYRQAPGKQRELVAIITRRGSTNYADSVKGRFTVSSDNAKNTVYLQMNSLKPEDTAVYYCYHQTAPVADVTWGQGTQVTVSS
notes: pHEN6 vector; also called Nb 23; CA-number 3407; source: E. coli WK6 periplasm, purified (IMAC, gel filtration); not shown: His-tag, C-terminal, kept
B4: nanobody 11 (VHH)
VHH: B3 VHH with P14A, F17S, T19R, S27G, S30T, R53K, R54K, S71R
notes: pHEN6 vector; also called Nb 11; CA-number 3393; source: E. coli WK6 periplasm, purified (IMAC, gel filtration); not shown: His-tag, C-terminal, kept
B5: nanobody 16 (VHH)
VHH: B3 VHH with F17S, R53S, R54G, S71R
notes: pHEN6 vector; also called Nb 16; CA-number 3398; source: E. coli WK6 periplasm, purified (IMAC, gel filtration); not shown: His-tag, C-terminal, kept
B6: nanobody 8 (VHH)
VHH: QVQLQESGGGLVQPGGSLRLSCAASGSPFSFGAMGWYRQAPGKQRELAAIITNAGSTMYADSVKGRFTVSRVNAKNTVSLQMNNLKPEDTAVYYCYAQTAPVADVTWGQGTQVTVSS
notes: pHEN6 vector; also called Nb 8; CA-number 3389; source: E. coli WK6 periplasm, purified (IMAC, gel filtration); not shown: His-tag, C-terminal, kept
B7: nanobody 19 (VHH)
VHH: QVQLQESGGGLVQPGGSLRLSCAASGSISRLNHMGWYRQPPGKQRELVAVITSGGSTDYADSVKGRFTISSGNAKNTVYLQMNSLKTEDTAVYYCNAYSEFIRPYTLWGQGTQVTVSS
notes: pHEN6 vector; also called Nb 19; CA-number 3402; source: E. coli WK6 periplasm, purified (IMAC, gel filtration); not shown: His-tag, C-terminal, kept
B8: nanobody 13 (VHH)
VHH: B7 VHH with L31I, D58N, S71R, A74Y, K75Q, T87A, S99T, I102D, T106N, L107H
notes: pHEN6 vector; also called Nb 13; CA-number 3395; source: E. coli WK6 periplasm, purified (IMAC, gel filtration); not shown: His-tag, C-terminal, kept
B9: nanobody 3 (VHH)
VHH: QVQLQESGGGLVQPGGSLRLSCAASGFTLDYYAIGWFRQTPGKEREGVSCISSSDDSTYYADSVKGRFTISRDNAKNTVYLQMNSLKPEDTAVYYCATGWACTLVAGTNGMDYWGKGTQVTVSS
notes: pHEN6 vector; also called Nb 3; CA-number 3382; source: E. coli WK6 periplasm, purified (IMAC, gel filtration); not shown: His-tag, C-terminal, kept
B10: nanobody 6 (VHH)
VHH: QVQLQESGGGLVQPGGSLRLSCAASGSIFSINAMGWYRQAPGKQRELVAVLTRRGSTNYADSMKGRFTISRDNTKNTVYLQMNSLKPEDTAVYYCNADLEGRPLYWGQGTQVTVSS
notes: pHEN6 vector; also called Nb 6; CA-number 3387; source: E. coli WK6 periplasm, purified (IMAC, gel filtration); not shown: His-tag, C-terminal, kept
B11: nanobody 1 (VHH)
VHH: QVQLQESGGGLVQPGGSLRLSCAASGRIPFITAMGWYRQAPGKQRELLASVTNSEITNYADSVKGRFTISRDNARNRVYLQMNSLKPEDTAVYYCNVKRAGNLIDYWGQGTQVTVSS
notes: pHEN6 vector; also called Nb 1; CA-number 3379; source: E. coli WK6 periplasm, purified (IMAC, gel filtration); not shown: His-tag, C-terminal, kept
B12: nanobody 18 (VHH)
VHH: QVQLQESGGGLVQPGGSLRLSCAASGSIFSINAMGWYRQAPGKQRELVAFITKVGNTNYADSVKDRFAISRDNAKNTVYLQMNSLKPEDTAVYYCYADIENSSNYKQDFYWGQGTQVTVSS
notes: pHEN6 vector; also called Nb 18; CA-number 3401; source: E. coli WK6 periplasm, purified (IMAC, gel filtration); not shown: His-tag, C-terminal, kept
B13: nanobody 17 (VHH)
VHH: QVQLQESGGGLVQPGGSLRLSCAASGSIFSINSMDWYRQAPGKQRELVATITSGGSTNYADSVKGRFTISRDNGKNTVYLQMNSLKPEDTAVYYCHAVVSTRGGYWGQGTQVTVSS
notes: pHEN6 vector; also called Nb 17; CA-number 3399; source: E. coli WK6 periplasm, purified (IMAC, gel filtration); not shown: His-tag, C-terminal, kept
B14: nanobody 14 (VHH)
VHH: B13 VHH with G74A, Y94L, S100A
notes: pHEN6 vector; also called Nb 14; CA-number 3396; source: E. coli WK6 periplasm, purified (IMAC, gel filtration); not shown: His-tag, C-terminal, kept
B15: nanobody 20 (VHH)
VHH: B13 VHH with S27N, S30G, A60G, G74A, V78M, V99L
notes: pHEN6 vector; also called Nb 20; CA-number 3403; source: E. coli WK6 periplasm, purified (IMAC, gel filtration); not shown: His-tag, C-terminal, kept
B16: nanobody 4 (VHH)
VHH: B13 VHH with I31M, G74A, K75W, Y79T, V99L
notes: pHEN6 vector; also called Nb 4; CA-number 3383; source: E. coli WK6 periplasm, purified (IMAC, gel filtration); not shown: His-tag, C-terminal, kept
B17: nanobody 10 (VHH)
VHH: B13 VHH with G74A, S100A
notes: pHEN6 vector; also called Nb 10; CA-number 3391; source: E. coli WK6 periplasm, purified (IMAC, gel filtration); not shown: His-tag, C-terminal, kept
B18: nanobody 15 (VHH)
VHH: QVQLQESGGGLVQPGGSLRLSCAASGSISTINHMGWYRQPPGKQRELVAVITRSGSTNYADSVKGRFTISRGNVKNTVYLQMNSVKAEDTAVYYCNAYTEFDRPYNHWGQGTQVTVSS
notes: pHEN6 vector; also called Nb 15; CA-number 3397; source: E. coli WK6 periplasm, purified (IMAC, gel filtration); not shown: His-tag, C-terminal, kept
B19: nanobody 9 (VHH)
VHH: B18 VHH with S29F, T30G, H33A, Q39R, R53S, S54G, V74A, V85L, E100D, D102V
notes: pHEN6 vector; also called Nb 9; CA-number 3390; source: E. coli WK6 periplasm, purified (IMAC, gel filtration); not shown: His-tag, C-terminal, kept
B20: nanobody 21 (VHH)
VHH: QVQLQESGGGLVQPGGSLRLSCAASGRIPFITAMGWYRQAPGRQRELLATVTNSGSTNYADSVKGRFTISRDNAKNTVSLQMNSLKAEDTAVYYCNVRRLGNLSDYWGQGTQVTVSS
notes: pHEN6 vector; also called Nb 21; CA-number 3404; source: E. coli WK6 periplasm, purified (IMAC, gel filtration); not shown: His-tag, C-terminal, kept
B21: nanobody 2 (VHH)
VHH: QVQLQESGGGLVQAGGSLRLSCAASGGTFRTGGMAWFRQAPGKAREFAAGISWSGGSTDYGDSVKGRFTISRDNAKNTVYLQMNSLKPEDTAVYYCAASRRFRSGVLTRADDVDYWGKGTQVTVSS
notes: pHEN6 vector; also called Nb 2; CA-number 3381; source: E. coli WK6 periplasm, purified (IMAC, gel filtration); not shown: His-tag, C-terminal, kept
B22: nanobody 22 (VHH)
VHH: B21 VHH with R30K, T31S, G61E, V79M, S99A, S104A, L107V
notes: pHEN6 vector; also called Nb 22; CA-number 3406; source: E. coli WK6 periplasm, purified (IMAC, gel filtration); not shown: His-tag, C-terminal, kept

How the values were obtained:
[1] = target: His-tagged T2 mechanosensitive channel from Thermoplasma volcanium (Thermoplasma volcanium); assay: cross-linking; chemical crosslinking of the T2 channel in crude membranes; ladder of five bands
[2] = target: T1 mechanosensitive channel from Thermoplasma volcanium (Thermoplasma volcanium); assay: cross-linking; chemical crosslinking; the sample of T1 is not told (only T2 is shown, Figure 2 D)
[3] = target: His-tagged T2 mechanosensitive channel from Thermoplasma volcanium (Thermoplasma volcanium); assay: far-Western, overlay or dot blot; channel samples run on SDS-PAGE and blotted on nitrocellulose (His-tagged T1 0.1 µg, His-tagged T2 0.1 µg, tag free T2 0.01 and 0.1 µg); strips incubated with nanobody at 1 µg/ml for 1 hour, bound His-tagged nanobody detected with HisProbe-HRP; intensity ratio of lane 2 of the sample strip to the reference strip
[4] = target: T1, T2 mechanosensitive channel from …; assay: SPR; BIAcore 3000, 25 °C, 20 mM sodium phosphate pH 7.4, 150 mM NaCl, 0.03 % DDM; T2 channel amine-coupled on CM5 (1500 - 2000 RU); nanobodies 0.35 - 86.1 nM injected in triplicates; global fit to a simple bimolecular model, KD = kd/ka; conditions: both partners purified

Row | Molecule | stoichiometry N [1] | stoichiometry N [2] | ratio of WB intensities [3] | Kd [4] [nM] | koff [4] [s⁻¹] | kon [4] [M⁻¹ s⁻¹]
1 | His-tagged T2 mechanosensitive channel from Thermoplasma volcanium (natural protein) | 5 |  |  |  |  | 
2 | T1 mechanosensitive channel from Thermoplasma volcanium (natural protein) |  | 5 |  |  |  | 
3 | B1 |  |  | 7.15 | 3.8 | 0.0025 | 650000
4 | B2 |  |  |  | 23 | 0.07 | 3e+06
5 | B3 |  |  | 16.6 | 0.78 | 0.00095 | 1.26e+06
6 | B4 |  |  | 14.2 | 15.1 | 0.0016 | 100000
7 | B5 |  |  | 1.98 | 7.4 | 0.0055 | 750000
8 | B6 |  |  | 15 | 0.58 | 0.00089 | 1.56e+06
9 | B7 |  |  | 17.5 | 1.29 | 0.0015 | 1.35e+06
10 | B8 |  |  | 15.1 | 0.61 | 0.00088 | 1.46e+06
11 | B9 |  |  | 4.59 | 9.5 | 0.0091 | 960000
12 | B10 |  |  | 4.7 | 4.4 | 0.0081 | 1.82e+06
13 | B11 |  |  |  | 14.2 | 0.0278 | 1.98e+06
14 | B12 |  |  | 15.7 | 1.1 | 0.00052 | 480000
15 | B13 |  |  | 6.09 | 4.5 | 0.00315 | 710000
16 | B14 |  |  | 6.07 | 2.6 | 0.0023 | 880000
17 | B15 |  |  | 4.86 | 3.5 | 0.0036 | 1.03e+06
18 | B16 |  |  | 3.87 | 3.4 | 0.0021 | 620000
19 | B17 |  |  | 9.8 | 3.9 | 0.0036 | 940000
20 | B18 |  |  | 25.7 | 0.057 | 0.00011 | 1.96e+06
21 | B19 |  |  |  | 48.3 | 0.15 | 3.1e+06
22 | B20 |  |  |  | 37 | 0.171 | 5e+06
23 | B21 |  |  |  | 81.2 | 0.104 | 1.31e+06
24 | B22 |  |  |  | 25.4 | 0.0061 | 240000
